According to patent US20230094162A1 (MacroGenics, published 2023):
Where two headings read alike, the source gives them in different places.

Tests used:
[1] = molecular target: T1, PD-L1 expressed on the cell surface (CHO/PD-L1 cells) (UniProt Q9NZQ7 19-290); assay: flow cytometry (FACS) on JIMT-1 cells (PD-L1 positive), MFI
T1 construct: whole, on cells; also called PD-L1 on JIMT-1 cells

[2] = molecular target: T1, PD-L1 expressed on the cell surface …; assay: cell-based or functional assay
[3] = molecular target: T2, CD137 expressed on the cell surface (CHO/CD137 cells) (UniProt Q07011 24-255, limits assumed); assay: flow cytometry (FACS) on CHO cells expressing CD137, MFI
T2 construct: whole, on cells; also called cell surface CD137; Jurkat-NF-κB-Luc reporter cells overexpressing CD137
Description: FACS analysis to evaluate the test articles for binding to cell surface CD137 was performed essentially as follows: 100 μL of CHO cells expressing CD137 (CHO/CD137) (1.0×10⁵ to 1×10⁶ cells/well) and 100 μL of serially diluted test article or control was added to each well of microtiter assay plate(s), mixed and incubated at RT for about 30 min. The cells were washed with FACS Buffer and secondary antibody (goat anti-human-APC, PE, or FITC) was then added to each well (1:1000), after which, the components were mixed and the wells were incubated at RT for about 30 min. Cells were washed and resuspended in 250 μL FACS Buffer and analyzed by flow cytometry (BD LSR Fortessa or FACSCanto II) for cell events collection. Data analysis were performed via FloJo v10.

[4] = molecular target: T2, CD137 expressed on the cell surface …; assay: as above; remark: listed apart in the source
[5] = molecular target: T1, PD-L1 expressed on the cell surface …; assay: cell-based or functional assay; remark: listed apart in the source
[6] = molecular target: T1, PD-L1 expressed on the cell surface …; assay: cell-based or functional assay; remark: listed apart in the source
[7] = molecular target: T2, CD137 expressed on the cell surface …; assay: flow cytometry (FACS) on CHO cells expressing CD137, MFI; remark: listed apart in the source

T1 sequence (Q9NZQ7 19-290): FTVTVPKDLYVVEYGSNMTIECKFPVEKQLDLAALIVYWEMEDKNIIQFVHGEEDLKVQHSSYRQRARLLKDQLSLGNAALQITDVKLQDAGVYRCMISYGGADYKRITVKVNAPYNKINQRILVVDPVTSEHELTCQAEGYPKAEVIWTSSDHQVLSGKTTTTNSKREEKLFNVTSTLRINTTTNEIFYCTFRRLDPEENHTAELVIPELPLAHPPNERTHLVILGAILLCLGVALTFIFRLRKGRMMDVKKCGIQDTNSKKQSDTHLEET
T2 sequence (Q07011 24-255 limits assumed): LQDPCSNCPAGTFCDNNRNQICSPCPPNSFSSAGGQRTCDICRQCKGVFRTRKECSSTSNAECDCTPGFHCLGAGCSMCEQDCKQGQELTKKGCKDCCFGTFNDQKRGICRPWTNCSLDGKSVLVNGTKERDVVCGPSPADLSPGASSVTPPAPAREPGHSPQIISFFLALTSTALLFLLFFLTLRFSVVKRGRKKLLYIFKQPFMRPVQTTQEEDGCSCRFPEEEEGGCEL

Binder	EC50 (read off the curve) [1]	EC50 (read off the curve) [2]	EC50 (read off the curve) [3]	EC50 (read off the curve) [4]	EC50 (read off the curve) [5]	EC50 (read off the curve) [6]	EC50 (read off the curve) [7]
DART-A1 (bispecific antibody) first and third polypeptide chains: DIQMTQSPSSLSASVGDRVTITCKASQDVNTAVAWYQQKPGKAPKLLIYWASTRHTGVPSRFSGSGSGTDFTLTISSLQPEDFATYYCQQHYNTPLTFGQGTKVEIKGGGSGGGGQVQLQESGPGLVKPSETLSLTCTVSGGSISSYYWSWIRQPPGKGLEWIGRIYTSGSTNYNPSLKSRVTMSVDTSKNQFSLKLSSVTAADTAVYYCARDGWYDEDYNYYGMDVWGQGTTVTVSSGGCGGGEVAACEKEVAALEKEVAALEKEVAALEKLEPKSADKTHTCPPCPAPEAAGGPSVFLFPPKPKDTLYITREPEVTCVVVDVSHEDPEVKFNWYVDGVEVHNAKTKPREEQYNSTYRVVSVLTVLHQDWLNGKEYKCKVSNKALPAPIEKTISKAKGQPREPQVYTLPPSREEMTKNQVSLTCLVKGFYPSDIAVEWESNGQPENNYKTTPPVLDSDGSFFLYSKLTVDKSRWQQGNVFSCSVMHEALHNHYTQKSLSLSPGK second and fourth polypeptide chains: EIVMTQSPATLSLTPGERATLSCRASQSVSSNYLSWFQQIPGQAPRLLIYGASTRATGIPARFSGSGSGTDFTLTISSLQPEDFAVYYCQQDYDLPWTFGQGTKVEIKGGGSGGGGEVQLVESGGGLVQPGGSLRLSCAASGFTFSSYTMSWVRQAPGKGLEWVAYISIGGGTTYYPDTVKGRFTISRDNAKNSLYLQMNSLRAEDTAVYYCARQGLPYYFDYWGQGTLVTVSSGGCGGGKVAACKEKVAALKEKVAALKEKVAALKE	~0.007 µg/mL	~0.1 µg/mL	–	–	–	–	–
DART-A6 (bispecific antibody, Tetravalent; CD137 MAB-6(1.3) and hPD-L1 MAB-2(3.2)) chain 1: DIQMTQSPSSLSASVGDRVTITCKASQDVNEAVAWYQQKPGKAPKLLIYWASTRHTGVPSRFSGSGSGTDFTLTISSLQPEDFATYYCQQHYNTPLTFGQGTKVEIKGGGSGGGGQVQLQESGPGLVKPSETLSLTCTVSGGSISSYYWSWIRQPPGKGLEWIGRIYTSGSTNYNPSLKSRVTMSVDTSKNQFSLKLSSVTAADTAVYYCARDGWYDEDYNYYGMDVWGQGTTVTVSSGGCGGGEVAACEKEVAALEKEVAALEKEVAALEKLEPKSADKTHTCPPCPAPEAAGGPSVFLFPPKPKDTLYITREPEVTCVVVDVSHEDPEVKFNWYVDGVEVHNAKTKPREEQYNSTYRVVSVLTVLHQDWLNGKEYKCKVSNKALPAPIEKTISKAKGQPREPQVYTLPPSREEMTKNQVSLTCLVKGFYPSDIAVEWESNGQPENNYKTTPPVLDSDGSFFLYSKLTVDKSRWQQGNVFSCSVMHEALHNHYTQKSLSLSPGK chain 2: EIVMTQSPATLSLSPGERATLSCRASQSVSSNYLSWFQQKPGQAPRLLIYGASTRATGIPARFSGSGSGTDFTLTISSLQPEDFAVYYCQQDYDLPWTFGQGTKVEIKGGGSGGGGEVQLVESGGGLVQPGGSLRLSCAASGFTFSSYTMSWVRQAPGKGLEWVAYISIKGGTTYYPDTVKGRFTISRDNAKNSLYLQMNSLRAEDTAVYYCARQGLPYYGDYWGQGTLVTVSSGGCGGGKVAACKEKVAALKEKVAALKEKVAALKE	–	–	~0.05 µg/mL	~0.02 µg/mL	~0.2 µg/mL	–	–
DART-A5 (bispecific antibody, Tetravalent; CD137 MAB-6(1.2) and hPD-L1 MAB-2(3.2)) chain 1: DIQMTQSPSSLSASVGDRVTITCKASQDVNEAVAWYQQKPGKAPKLLIYWASTRHTGVPSRFSGSGSGTDFTLTISSLQPEDFATYYCQQHYNTPLTFGQGTKVEIKGGGSGGGGQVQLQESGPGLVKPSETLSLTCTVSGGSISSYYWSWIRQPPGKGLEWIGRIYTSGSTNYNPSLKSRVTMSVDTSKNQFSLKLSSVTAADTAVYYCARDGWYDEDYNYYGMDVWGQGTTVTVSSGGCGGGEVAACEKEVAALEKEVAALEKEVAALEKLEPKSADKTHTCPPCPAPEAAGGPSVFLFPPKPKDTLYITREPEVTCVVVDVSHEDPEVKFNWYVDGVEVHNAKTKPREEQYNSTYRVVSVLTVLHQDWLNGKEYKCKVSNKALPAPIEKTISKAKGQPREPQVYTLPPSREEMTKNQVSLTCLVKGFYPSDIAVEWESNGQPENNYKTTPPVLDSDGSFFLYSKLTVDKSRWQQGNVFSCSVMHEALHNHYTQKSLSLSPGK chain 2: EIVMTQSPATLSLSPGERATLSCRASQSVSSNYLSWYQQKPGQAPRLLIYGASTRATGIPARFSGSGSGTDFTLTISSLQPEDFAVYYCQQDYDLPWTFGQGTKVEIKGGGSGGGGEVQLVESGGGLVQPGGSLRLSCAASGFTFSSYTMSWVRQAPGKGLEWVAYISIKGGTTYYPDTVKGRFTISRDNAKNSLYLQMNSLRAEDTAVYYCARQGLPYYGDYWGQGTLVTVSSGGCGGGKVAACKEKVAALKEKVAALKEKVAALKE	–	–	–	~0.02 µg/mL	–	–	–
DART-A4 (bispecific antibody, Tetravalent; CD137 MAB-6(1.1) and hPD-L1 MAB-2(3.2)) chain 1: DIQMTQSPSSLSASVGDRVTITCKASQDVNEAVAWYQQKPGKAPKLLIYWASTRHTGVPSRFSGSGSGTDFTLTISSLQPEDFATYYCQQHYNTPLTFGQGTKVEIKGGGSGGGGQVQLQESGPGLVKPSETLSLTCTVSGGSISSYYWSWIRQPPGKGLEWIGRIYTSGSTNYNPSLKSRVTMSVDTSKNQFSLKLSSVTAADTAVYYCARDGWYDEDYNYYGMDVWGQGTTVTVSSGGCGGGEVAACEKEVAALEKEVAALEKEVAALEKLEPKSADKTHTCPPCPAPEAAGGPSVFLFPPKPKDTLYITREPEVTCVVVDVSHEDPEVKFNWYVDGVEVHNAKTKPREEQYNSTYRVVSVLTVLHQDWLNGKEYKCKVSNKALPAPIEKTISKAKGQPREPQVYTLPPSREEMTKNQVSLTCLVKGFYPSDIAVEWESNGQPENNYKTTPPVLDSDGSFFLYSKLTVDKSRWQQGNVFSCSVMHEALHNHYTQKSLSLSPGK chain 2: EIVMTQSPATLSLTPGERATLSCRASQSVSSNYLSWFQQIPGQAPRLLIYGASTRATGIPARFSGSGSGTDFTLTISSLQPEDFAVYYCQQDYDLPWTFGQGTKVEIKGGGSGGGGEVQLVESGGGLVQPGGSLRLSCAASGFTFSSYTMSWVRQAPGKGLEWVAYISIKGGTTYYPDTVKGRFTISRDNAKNSLYLQMNSLRAEDTAVYYCARQGLPYYGDYWGQGTLVTVSSGGCGGGKVAACKEKVAALKEKVAALKEKVAALKE	~0.004 µg/mL	~0.08 µg/mL	~0.04 µg/mL	~0.02 µg/mL	~0.2 µg/mL	~0.1 µg/mL	–
TRIDENT-A5 (bispecific antibody, human IgG1, kappa, L234A L235A, Trivalent; two CD137 MAB-6(1.2) sites, one hPD-L1 MAB-2(3.2) site) chain 1: EIVMTQSPATLSLSPGERATLSCRASQSVSSNYLSWYQQKPGQAPRLLIYGASTRATGIPARFSGSGSGTDFTLTISSLQPEDFAVYYCQQDYDLPWTFGQGTKVEIKGGGSGGGGQVQLQESGPGLVKPSETLSLTCTVSGGSISSYYWSWIRQPPGKGLEWIGRIYTSGSTNYNPSLKSRVTMSVDTSKNQFSLKLSSVTAADTAVYYCARDGWYDEDYNYYGMDVWGQGTTVTVSSGGCGGGEVAALEKEVAALEKEVAALEKEVAALEKGGGDKTHTCPPCPAPEAAGGPSVFLFPPKPKDTLYITREPEVTCVVVDVSHEDPEVKFNWYVDGVEVHNAKTKPREEQYNSTYRVVSVLTVLHQDWLNGKEYKCKVSNKALPAPIEKTISKAKGQPREPQVYTLPPSREEMTKNQVSLWCLVKGFYPSDIAVEWESNGQPENNYKTTPPVLDSDGSFFLYSKLTVDKSRWQQGNVFSCSVMHEALHNHYTQKSLSLSPGK chain 2: EIVMTQSPATLSLSPGERATLSCRASQSVSSNYLSWYQQKPGQAPRLLIYGASTRATGIPARFSGSGSGTDFTLTISSLQPEDFAVYYCQQDYDLPWTFGQGTKVEIKGGGSGGGGQVQLQESGPGLVKPSETLSLTCTVSGGSISSYYWSWIRQPPGKGLEWIGRIYTSGSTNYNPSLKSRVTMSVDTSKNQFSLKLSSVTAADTAVYYCARDGWYDEDYNYYGMDVWGQGTTVTVSSGGCGGGKVAALKEKVAALKEKVAALKEKVAALKE heavy: EVQLVESGGGLVQPGGSLRLSCAASGFTFSSYTMSWVRQAPGKGLEWVAYISIKGGTTYYPDTVKGRFTISRDNAKNSLYLQMNSLRAEDTAVYYCARQGLPYYGDYWGQGTLVTVSSASTKGPSVFPLAPSSKSTSGGTAALGCLVKDYFPEPVTVSWNSGALTSGVHTFPAVLQSSGLYSLSSVVTVPSSSLGTQTYICNVNHKPSNTKVDKRVEPKSCDKTHTCPPCPAPEAAGGPSVFLFPPKPKDTLYITREPEVTCVVVDVSHEDPEVKFNWYVDGVEVHNAKTKPREEQYNSTYRVVSVLTVLHQDWLNGKEYKCKVSNKALPAPIEKTISKAKGQPREPQVYTLPPSREEMTKNQVSLSCAVKGFYPSDIAVEWESNGQPENNYKTTPPVLDSDGSFFLVSKLTVDKSRWQQGNVFSCSVMHEALHNRYTQKSLSLSPGK light: DIQMTQSPSSLSASVGDRVTITCKASQDVNEAVAWYQQKPGKAPKLLIYWASTRHTGVPSRFSGSGSGTDFTLTISSLQPEDFATYYCQQHYNTPLTFGQGTKVEIKRTVAAPSVFIFPPSDEQLKSGTASVVCLLNNFYPREAKVQWKVDNALQSGNSQESVTEQDSKDSTYSLSSTLTLSKADYEKHKVYACEVTHQGLSSPVTKSFNRGEC	–	–	–	–	–	–	~0.03 µg/mL
